From US6107076A, “Soluble mammalian adenylyl cyclase and uses therefor” (Board of Regents, The University of Texas System, priority 1996, dated 2000)

Key:
IC1 IIC2 -L3 [1] = target: IC1 IIC2 -L3
[2] = target: mixture of IC1 and IIC2 (non-covalent complex of the C1 domain of type I and the C2 domain of type II adenylyl cyclase) (Bos taurus (Bovine); Rattus norvegicus (Rat))
IC1 IIC2 -L3 [3] = target: IC1 IIC2 -L3; remark: listed apart in the source
[4] = target: mixture of IC1 and IIC2 (non-covalent complex of the C1 domain of type I and the C2 domain of type II adenylyl cyclase) (Bos taurus (Bovine); Rattus norvegicus (Rat)); assay: equilibrium constant of the model of FIG. 15, derived from the EC50 of activated Gsα for adenylyl cyclase activity of mixed IC1 and IIC2; no direct binding assay
[5] = target: IC1 (C1a domain of type I adenylyl cyclase, construct of Example 5) (Bos taurus (Bovine))
[6] = target: IC1 (C1a domain of type I adenylyl cyclase, construct of Example 5) (Bos taurus (Bovine)); remark: listed apart in the source
[7] = target: IC1 (C1a domain of type I adenylyl cyclase, construct of Example 5) (Bos taurus (Bovine)); assay: estimated from the adenylyl cyclase activity of 0.1 µM IC1 titrated with IIC2 without activator (FIG. 13A, model of FIG. 15); no direct binding assay
[8] = target: T1, soluble adenylyl cyclase chimera IC1 IIC2 -L3 (C1a of type I adenylyl cyclase, residues 271-484, linked to C2a of type II adenylyl cyclase, residues 821-1090) (UniProt P19754+P26769); assay: Adenylyl cyclase activity of 150,000 g supernatant from E. coli expressing IC1 IIC2 -L3; format: biochemical, mammalian
T1 construct: IC1a includes residues 271-484 of type I adenylyl cyclase; IIC2a includes residues 821-1090 of type II adenylyl cyclase; made in house; host or cells: E. coli TP2000 (150,000 g supernatant)
T1 sequence (P19754+P26769 fused, change not shown): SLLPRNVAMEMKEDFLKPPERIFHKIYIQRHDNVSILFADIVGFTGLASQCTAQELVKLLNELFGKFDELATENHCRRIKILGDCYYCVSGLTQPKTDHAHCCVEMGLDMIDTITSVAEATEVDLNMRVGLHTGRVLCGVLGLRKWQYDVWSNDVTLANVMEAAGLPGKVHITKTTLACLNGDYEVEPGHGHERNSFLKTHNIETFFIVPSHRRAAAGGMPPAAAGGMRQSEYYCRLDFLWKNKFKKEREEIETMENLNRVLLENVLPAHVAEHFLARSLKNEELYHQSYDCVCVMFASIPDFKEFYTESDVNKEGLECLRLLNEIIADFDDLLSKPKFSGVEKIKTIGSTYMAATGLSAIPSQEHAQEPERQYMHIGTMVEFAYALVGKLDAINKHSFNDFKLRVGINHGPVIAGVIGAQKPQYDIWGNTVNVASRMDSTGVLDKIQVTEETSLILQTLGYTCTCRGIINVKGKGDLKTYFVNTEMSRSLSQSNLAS
Description: FIG. 2--Enzyme activity of chimeras.
Data shown are representative of at least two studies.
E. coli that contained the desired plasmids were grown in LB plus 50 μM carbenicillin to OD600 =0.3. Isopropyl-β-D-thiogalactopyranoside(100 μM) and chloramphenicol (0.5 μM) were added to induce expression of adenylyl cyclase for 12 hours. Bacteria were then collected by centrifugation at 4° C. and lysed by incubation at 4° C. for 30 min in 20 mM Tris-HCl (pH 8.0), 1 mM EDTA, 2 mM dithiothreitol (DTT) and protease inhibitors with 0.1 mg/ml of lysozyme. The suspension was sonicated briefly (3×20 sec) during incubation. The lysate was centrifuged (4° C.) at 150,000×g for 30 min, and the supernatant was recovered.
The inventors examined adenylyl cyclase activity in vitro in 150,000 g supernatant fractions from E. coli […] transformed with the various constructs. […] Ca^2+ -calmodulin had no detectable effect on activity, and lysates from cells expressing either IC1 or IIC2 had little adenylyl cyclase activity.
However, the maximal stimulatory effect of the G protein α subunit exceeded that of forskolin (FIG. 4). […] Synergistic activation of the enzyme was thus not due to alternation of apparent substrate affinity.

What does the source list for “wild-type alpha subunit of the G protein (Gsα)”?
adenylyl cyclase activity of 150,000 g supernatant (IC1 IIC2 -L5): 50 fold; adenylyl cyclase activity of 150,000 g supernatant (IC1 IIC2 -L1): 50 fold; adenylyl cyclase activity of 150,000 g supernatant (IC1 IIC2 -L3 [1]): 50 fold; adenylyl cyclase activity of purified mixed fragments (8 nM IC1, 6.6 µM IIC2) against the concentration of activated Gsα [2]: > 100 fold; EC50 for activation of adenylyl cyclase activity (IC1 IIC2 -L3 [3]): 1000 nM; K4 [4]: 0.4 µM

“IIC2 (C2 domain of type II adenylyl cyclase, construct of Example 5) (enzyme)” was tested. Which EC50 for IIC2, adenylyl cyclase activity with IC1 in the absence of activators [5] did it give?
The EC50 for IIC2, adenylyl cyclase activity with IC1 in the absence of activators was > 10000 nM.

What about the apparent EC50 for IIC2, adenylyl cyclase activity with 8 nM IC1, 50 µM FSK and 10 µM GTP[γS]-Gsα [6] of the same compound?
Its apparent EC50 for IIC2, adenylyl cyclase activity with 8 nM IC1, 50 µM FSK and 10 µM GTP[γS]-Gsα is 15 nM.

What about the apparent EC50 for IIC2, adenylyl cyclase activity with 8 nM IC1 and 50 µM FSK [6] of the same compound?
Its apparent EC50 for IIC2, adenylyl cyclase activity with 8 nM IC1 and 50 µM FSK is 190 nM.

What about the Kd [7] of the same compound?
Its Kd is > 10000 nM.

For `Nc1ncnc2c1ncn2[C@H]1C[C@H](OP(=O)(O)O)[C@@H](CO)O1` [2'-deoxy-3'-AMP], which “inhibition of adenylyl cyclase activity (P-site inhibitor), mode” value ([8]; forskolin-activated enzyme, FIG. 7) is on record?
Its value is “inhibited noncompetitively”.

`C=CC1(C)CC(=O)C2C3(C)CCCC(C)(C)C3C(O)C(OC(C)=O)C2(C)O1` (stereo not drawn) [1,9-dideoxyforskolin] was tested. Which “stimulation of adenylyl cyclase activity” value ([8]; 150,000 g supernatant, FIG. 3) did it give?
Its value is “failed to stimulate”.
